Laboratory results reported in publication PMC2268108 (The Journal of General Physiology, 2005).

Assays:
SDS-PAGE of the tetramer = biological target: the molecule itself; assay: SDS-PAGE of the tetramer
cross-linking = biological target: the molecule itself; assay: cross-linking
[1] = biological target: the molecule itself; assay: single-molecule fluorescence
[2] = biological target: the molecule itself; assay: single-molecule fluorescence; remark: listed apart in the source

B1: KcsA T75C (natural protein)
chain: MPPMLSGLLARLVKLLLGRHGSALHWRAAGAATVLLVIVLLAGSYLAVLAERGAPGAQLITYPRALWWSVETATCVGYGDLYPVTLWGRLVAVVVMVAGITSFGLVTAALATWFVGREQERRGHFVRHSEKAAEEAYTRTTRALHERFDRLERMLDDNRR
binding result (SDS-PAGE of the tetramer): binds

B2: KcsA Thr75 to Ala (natural protein)
chain: MPPMLSGLLARLVKLLLGRHGSALHWRAAGAATVLLVIVLLAGSYLAVLAERGAPGAQLITYPRALWWSVETATAVGYGDLYPVTLWGRLVAVVVMVAGITSFGLVTAALATWFVGREQERRGHFVRHSEKAAEEAYTRTTRALHERFDRLERMLDDNRR
binding result (SDS-PAGE of the tetramer): binds

B3: KdpFABC complex from Escherichia coli (complex)
chain 1: MSAGVITGVLLVFLLLGYLVYALINAEAF
chain 2: MAAQGFLLIATFLLVLMVLARPLGSGLARLINDIPLPGTTGVERVLFRALGVSDREMNWKQYLCAILGLNMLGLAVLFFMLLGQHYLPLNPQQLPGLSWDLALNTAVSFVTNTNWQSYSGETTLSYFSQMAGLTVQNFLSAASGIAVIFALIRAFTRQSMSTLGNAWVDLLRITLWVLVPVALLIALFFIQQGALQNFLPYQAVNTVEGAQQLLPMGPVASQEAIKMLGTNGGGFFNANSSHPFENPTALTNFVQMLAIFLIPTALCFAFGEVMGDRRQGRMLLWAMSVIFVICVGVVMWAEVQGNPHLLALGTDSSINMEGKESRFGVLVSSLFAVVTTAASCGAVIAMHDSFTALGGMVPMWLMQIGEVVFGGVGSGLYGMMLFVLLAVFIAGLMIGRTPEYLGKKIDVREMKLTALAILVTPTLVLMGAALAMMTDAGRSAMLNPGPHGFSEVLYAVSSAANNNGSAFAGLSANSPFWNCLLAFCMFVGRFGVIIPVMAIAGSLVSKKSQAASSGTLPTHGPLFVGLLIGTVLLVGALTFIPALALGPVAEYLS
chain 3: MSRKQLALFEPTLVVQALKEAVKKLNPQAQWRNPVMFIVWIGSLLTTCISIAMASGAMPGNALFSAAISGWLWITVLFANFAEALAEGRSKAQANSLKGVKKTAFARKLREPKYGAAADKVPADQLRKGDIVLVEAGDIIPCDGEVIEGGASVDESAITGESAPVIRESGGDFASVTGGTRILSDWLVIECSVNPGETFLDRMIAMVEGAQRRKTPNEIALTILLIALTIVFLLATATLWPFSAWGGNAVSVTVLVALLVCLIPTTIGGLLSAIGVAGMSRMLGANVIATSGRAVEAAGDVDVLLLDKTGTITLGNRQASEFIPAQGVDEKTLADAAQLASLADETPEGRSIVILAKQRFNLRERDVQSLHATFVPFTAQSRMSGINIDNRMIRKGSVDAIRRHVEANGGHFPTDVDQKVDQVARQGATPLVVVEGSRVLGVIALKDIVKGGIKERFAQLRKMGIKTVMITGDNRLTAAAIAAEAGVDDFLAEATPEAKLALIRQYQAEGRLVAMTGDGTNDAPALAQADVAVAMNSGTQAAKEAGNMVDLDSNPTKLIEVVHIGKQMLMTRGSLTTFSIANDVAKYFAIIPAAFAATYPQLNALNIMCLHSPDSAILSAVIFNALIIVFLIPLALKGVSYKPLTASAMLRRNLWIYGLGGLLVPFIGIKVIDLLLTVCGLV
chain 4: MSGLRPALSTFIFLLLITGGVYPLLTTVLGQWWFPWQANGSLIREGDTVRGSALIGQNFTGNGYFHGRPSATAEMPYNPQASGGSNLAVSNPELDKLIAARVAALRAANPDASASVPVELVTASASGLDNNITPQAAAWQIPRVAKARNLSVEQLTQLIAKYSQQPLVKYIGQPVVNIVELNLALDKLDE
stoichiometry N (cross-linking): 2

B4: pig gastric H/K-ATPase (αβ protomer), FITC-modified (complex)
chain 1: not shown
chain 2: MAALQEKKSCSQRMEEFQRYCWNPDTGQMLGRTLSRWVWISLYYVAFYVVMSGIFALCIYVLMRTIDPYTPDYQDQLKSPGVTLRPDVYGEKGLDISYNVSDSTTWAGLAHTLHRFLAGYSPAAQEGSINCTSEKYFFQESFLAPNHTKFSCKFTADMLQNCSGRPDPTFGFAEGKPCFIIKMNRIVKFLPGNSTAPRVDCAFLDQPRDGPPLQVEYFPANGTYSLHYFPYYGKKAQPHYSNPLVAAKLLNVPRNRDVVIVCKILAEHVSFDNPHDPYEGKVEFKLKIQK
stoichiometry N [1]: 2
stoichiometry N [2]: 4
